Reference: US20230212319A1, “NOVEL ANTIGEN BINDING DOMAINS AND SYNTHETIC ANTIGEN RECEPTORS INCORPORATING THE SAME” (University of Southern California, priority 2020, published 2023)

B1: SEQ ID NO: 22009: two AABD attached in tandem to one of the two TCR constant chains (protein)
chain: MALPVTALLLPLALLLHAARPLEGKPIPNPLLGLDSTGSGEDLKNVFPPEVAVFEPSKAEIAHTQKATLVCLATGFYPDHVELSWWVNGKEVHSGVCTDPQPLKEQPALNDSRYCLSSRLRVSATFWQNPRNHFRCQVQFYGLSENDEWTQDRAKPVTQIVSAEAWGRADCGITSASYHQGVLSATILYEILLGKATLYAVLVSALVLMAMVKRKDSRGRAKRSGSGATNFSLLKQAGDVEENPGPTSTMDWIWRILFLVGAATGAHSQLQLQESGPGLVKPSETLSLTCTVSGGSVSSSSYYWGWIRQPPGKRLELIGSIYYGGSTYFNPSLKSRVTISVDTSKNQFSLKLSSVTAADTAVYYCAGGDTYGPVGQWPSDYRGQGTLVTVSSGGGGSGGGSFEVQLLESGGGLVQPGGSLRLSCAASGFIFSIYAMSWVRQAPGKGLEWVSGISGSGVNTYYADSVKGRFIISRDNSRNTVYLQMNSLRADDTAVYHCANGKGWDGNTWYEDYRGQGTLVTVSSTREQKLISEEDGSGIQNPDPAVYQLRDSKSSDKSVCLFTDFDSQTNVSQSKDSDVYITDKCVLDMRSMDFKSNSAVAWSNKSDFACANAFNNSIIPEDTFFPSSDVPCDVKLVEKSFETDTNLNFQNLSVIGFRILLLKVAGFNLLMTLRLWSSRAKRSGSGVKQTLNFDLLKLAGDVESNPGPSRGHMTEYKPTVRLATRDDVPRAVRTLAAAFADYPATRHTVDPDRHIERVTELQELFLTRVGLDIGKVWVADDGAAVAVWTTPESVEAGAVFAEIGPRMAELSGSRLAAQQQMEGLLAPHRPKEPAWFLATVGVSPDHQGKGLGSAVVLPGVEAAERAGVPAFLETSAPRNLPFYERLGFTVTADVEVPEGPRTWCMTRKPGA
B2: SEQ ID NO: 22010: two AABD attached in tandem to one of the two TCR constant chains (protein)
chain: MALPVTALLLPLALLLHAARPLEGKPIPNPLLGLDSTGSGEDLKNVFPPEVAVFEPSKAEIAHTQKATLVCLATGFYPDHVELSWWVNGKEVHSGVCTDPQPLKEQPALNDSRYCLSSRLRVSATFWQNPRNHFRCQVQFYGLSENDEWTQDRAKPVTQIVSAEAWGRADCGITSASYHQGVLSATILYEILLGKATLYAVLVSALVLMAMVKRKDSRGRAKRSGSGATNFSLLKQAGDVEENPGPTSTMALPVTALLLPLALLLHAARPQLQLQESGPGLVKPSETLALTCNVSGGSISSSSYYWGWIRQPPGKRLEWIGSIYYSGSTYFNPSLKSRVTISVDTSKNQFSLKLSSVTAADTAVYYCAGGDYYGPVGQWPSDYRGQGTLVTVSSGSGGGGSGGGGSFEVQLLESGGGLVQPGGSLRLSCAASGFIFSSYAMSWVRQAPGKGQEWVSGVSGTGVNTYYADSVKGRFTISRDNSKNTLYLQMNSLRAEDTAVYYCASGKGWDSGSWYEDYRGQGTLVTVSSTREQKLISEEDGSGIQNPDPAVYQLRDSKSSDKSVCLFTDFDSQTNVSQSKDSDVYITDKCVLDMRSMDFKSNSAVAWSNKSDFACANAFNNSIIPEDTFFPSSDVPCDVKLVEKSFETDTNLNFQNLSVIGFRILLLKVAGFNLLMTLRLWSSRAKRSGSGVKQTLNFDLLKLAGDVESNPGPSRGHMTEYKPTVRLATRDDVPRAVRTLAAAFADYPATRHTVDPDRHIERVTELQELFLTRVGLDIGKVWVADDGAAVAVWTTPESVEAGAVFAEIGPRMAELSGSRLAAQQQMEGLLAPHRPKEPAWFLATVGVSPDHQGKGLGSAVVLPGVEAAERAGVPAFLETSAPRNLPFYERLGFTVTADVEVPEGPRTWCMTRKPGA
B3: 22651 (protein)
chain: MALPVTALLLPLALLLHAARPDIQMTQSPSSLSASVGDRVTITCKASDHINNWLAWYQQKPGQAPKLLIYGATTLETGVPSRFSGSGSGTDYTLTISSLQPEDFATYYCQQSWNTPWTFGQGTKLEIKRLEADVSPKPTIFLPSIAETKLQKAGTYLCLLEKFFPDVIKIHWQEKKSNTILGSQEGNTMKTNDTYMKFSWLTVPEKSLDKEHRCIVRHENNKNGVDQEIIFPPIKTDVITMDPKDNCSKDANDTLLLQLTNTSAYYMYLLLLLKSVVYFAIITCCLLRRTAFCCNGEKSRAKRSGSGATNFSLLKQAGDVEENPGPTSMDWIWRILFLVGAATGAHSFEQVQLQQPGAELVKPGASVKMSCKASGYAFSSYWINWMKQKPGQGLEWIGQIYPGDGDTNYNGKFKGRATLTADTSSSTAYMQLSSLTSEDSAVYFCARSITTVVGCAMDYWGQGTSVTVSSTRPHTKPSVFVMKNGTNVACLVKEFYPKDIRINLVSSKKITEFDPAIVISPSGKYNAVKLGKYEDSNSVTCSVQHDNKTVHSTDFEVKTDSTDHVKPKETENTKQPSKSCHKPKAIVHTEKVNMMSLTVLGLRMLFAKTVAVNFLLTAKLFFLRAKRSGSGVKQTLNFDLLKLAGDVESNPGPSRGHMTEYKPTVRLATRDDVPRAVRTLAAAFADYPATRHTVDPDRHIERVTELQELFLTRVGLDIGKVWVADDGAAVAVWTTPESVEAGAVFAEIGPRMAELSGSRLAAQQQMEGLLAPHRPKEPAWFLATVGVSPDHQGKGLGSAVVLPGVEAAERAGVPAFLETSAPRNLPFYERLGFTVTADVEVPEGPRTWCMTRKPGA
B4: 22652 (protein)
chain: MALPVTALLLPLALLLHAARPDIQMTQSPSSLSASVGDRVTITCKASDHINNWLAWYQQKPGQAPKLLIYGATTLETGVPSRFSGSGSGTDYTLTISSLQPEDFATYYCQQSWNTPWTFGQGTKLEIKRLEVSPKPTIFLPSIAETKLQKAGTYLCLLEKFFPDVIKIHWQEKKSNTILGSQEGNTMKTNDTYMKFSWLTVPEKSLDKEHRCIVRHENNKNGVDQEIIFPPIKTDVITMDPKDNCSKDANDTLLLQLTNTSAYYMYLLLLLKSVVYFAIITCCLLRRTAFCCNGEKSRAKRSGSGATNFSLLKQAGDVEENPGPTSMDWIWRILFLVGAATGAHSFEQVQLQQPGAELVKPGASVKMSCKASGYAFSSYWINWMKQKPGQGLEWIGQIYPGDGDTNYNGKFKGRATLTADTSSSTAYMQLSSLTSEDSAVYFCARSITTVVGCAMDYWGQGTSVTVSSTRPHTKPSVFVMKNGTNVACLVKEFYPKDIRINLVSSKKITEFDPAIVISPSGKYNAVKLGKYEDSNSVTCSVQHDNKTVHSTDFEVKTDSTDHVKPKETENTKQPSKSCHKPKAIVHTEKVNMMSLTVLGLRMLFAKTVAVNFLLTAKLFFLRAKRSGSGVKQTLNFDLLKLAGDVESNPGPSRGHMTEYKPTVRLATRDDVPRAVRTLAAAFADYPATRHTVDPDRHIERVTELQELFLTRVGLDIGKVWVADDGAAVAVWTTPESVEAGAVFAEIGPRMAELSGSRLAAQQQMEGLLAPHRPKEPAWFLATVGVSPDHQGKGLGSAVVLPGVEAAERAGVPAFLETSAPRNLPFYERLGFTVTADVEVPEGPRTWCMTRKPGA

Experiments:
[1] = system: target antigen-expressing cell line; assay: Jurkat NFAT-GFP (JNG) assay: induction of NFAT promoter driven GFP expression; format: cell-based; conditions: SAR-expressing JNG cells co-cultured with cell lines expressing their target antigen(s)
Method: Induction ofNFAT promoter driven GFP expression. […] Cellular supernatant is collected and assayed for the induction of cytokines (e.g., IL2).
Cellular supernatant is collected and assayed for the induction of cytokines (e.g., IL2).
JNG (Jurkat cells expressing EGFP under an NFAT promoter) were infected with lentiviral vectors encoding different single chain and multi-chain SARs by spinfection in the presence of 8 µg/ml of Polybrene® (Sigma, Catalog no. H9268). The Jurkat-NFAT-GFP cells are engineered in such a way that the IL-2 promoter, which carries NFAT binding sites, is cloned upstream of the GFP gene. These cells have been used to study signaling via TCR and CAR. The different SARs were stably expressed in Jurkat NFAT-GFP cells by lentiviral mediated gene transfer, followed by selection with puromycin or blasticidin. No drug selection was used in case the construct lacked an antibiotic resistance gene. The SAR-expressing Jurkat-NFAT-GFP cells were cocultured with the target cells at E:T ratio of approximately 1:2 for approximately 4 hours to 18 hours. When the interaction between SIRs and their target antigen results in activation of the NFAT pathway, GFP expression is induced. […] GFP expression was monitored by FACS analysis. The Jurkat-NFAT-GFP (parental) cells were used as control. The structure of different constructs can be determined based on their names. […] The sequence of the other constructs in the table can be similarly determined from their names and by referring to the different Tables of this disclosure that provide the names and SEQ ID NO of the different modules. Alternatively, the composition and modular architecture of the different SAR constructs can be determined from their sequences by bioinformatics tools, including using nucleic acid and amino acids homology searches. A SAR is considered positive in the assay in case the SAR expressing Jurkat-NFAT-GFP cells show greater % GFP positive cells when cultured with the target cell line as compared to parental Jurkat-NFAT-GFP cells. […] In general, the number +/-, +, 2+, 3+, 4+, 5+ refer to approximately 5%, 10%, 20%, 30%, 40% and 50% GFP positive cells. The % of GFP induction in the above assay is dependent not only the relative strength of the SAR but also, among other factors, on the relative level of expression of the SAR in the JNG cells and the relative level of expression of the target antigen in the target cell line. To control for the difference in gene transduction efficiency of the different SAR constructs, the experiment was conducted with JNG cells transduced with SAR constructs co-expressing a drug resistance gene (e.g., puromycin or PAC) followed by drug selection to generate a stable population of SAR-expressing cells. It is to be noted that the drug resistance gene (e.g., PAC) in the SAR constructs is optional and in vivo studies were conducted with SAR constructs lacking the PAC gene.

[2] = system: RAJI cells; assay: JNG (Jurkat NFAT-GFP) cells expressing SAR: GFP induction on co-culture with RAJI; conditions: CD19 hu-mROO5-1 SIRs with deletion mutants of TCR constant chains; flow cytometry

Molecule | GFP induction / activity in JNG assay [1] | Jurkat-NFAT ASSA Y: Raji [2]
B1 | only weak and inconsistent activity | 
B2 | only weak and inconsistent activity | 
B3 |  | significant residual activity
B4 |  | significant residual activity
